Results on 3 variants are retold here after publication PMC8024323, “Drosophila TNFRs Grindelwald and Wengen bind Eiger with different affinities and promote distinct cellular functions” (Nature Communications, 2021).

Sequences and labels used below:
B1: Grnd^30–97 (extracellular domain of Grindelwald) [Drosophila melanogaster] / Egr^146–409 (extracellular portion of Eiger, His6-tagged) [Drosophila melanogaster] (parent complex)
chain 1: GESRDCHGTICHPVNEFCYVATERCHPCIEVCNNQTHNYDAFLCAKECSAYKTFEPLKAEMLDIQNTQ
chain 2: GADYEDYTDMLNKLNNAHTGTTPTSETTAEGEGETDSASSASNDDNVFDDFTSYNAHKKKQERKSRSIADVRNEEQNIQGNHTELQEKSSNEATSKESPAPLHHRRRMHSRHRHLLVRKARSEDSRPAAHFHLSSRRRHQGSMGYHGDMYIGNDNERNSYQGHFQTRDGVLTVTNTGLYYVYAQICYNNSHDQNGFIVFQGDTPFLQCLNTVPTNMPHKVHTCHTSGLIHLERNERIHLKDIHNDRNAVLREGNNRSYFGIFKV

In the assay the parent is B1. Kind of assay: ITC; parent: 30.8 nM.
With chain 1 GESRDCHGTICHPVNEFCYVATARCHPCIEVCNNQTHNYDAFLCAKECSAYKTFEPLKAEMLDIQNTQ [chain 1 E23A], the Kd is 1.3 µM.

For chain 1 GESRDCHGTICHPVNEFCYVATERCHPCIEVCNNQTHAYDAFLCAKECSAYKTFEPLKAEMLDIQNTQ [chain 1 N38A], the Kd amounted to 4.5 µM.

On to chain 1 GESRDCHGTICHPVNEFCYVATERCHPCIEVCNNQTANYDAFLCAKECSAYKTFEPLKAEMLDIQNTQ [chain 1 H37A], for which the Kd was determined as 4.8 µM.
